Test [1] addresses T1, human serum albumin (HSA) (human, UniProt P02768 25-609).
T1 construct: The assays used bought HSA (Sigma #A37812 in the SPR work); also called HuSA
The test can be described thus: HSA binding ELISA: HSA coated, bound AFFIMER detected with biotinylated anti-cystatin A antibody and streptavidin-HRP. As for the experimental part:
Plates were washed and AFFIMER® polypeptides were detected using streptavidin-HRP for 30 min. After the last washing step, the TMB substrate was added for the development of the experiment and plates were read at 450 nm. The EC₅₀ was then calculated using the interpolated non-linear four-parameters standard curve.
In general terms: ELISA stands for enzyme-linked immunosorbent assay.

For test [2], the target named is T1, human serum albumin (HSA). The test is described as follows: SPR (Biacore 8K): HSA amine-coupled on a CM5 chip, AFFIMER as analyte, pH 6.0, 1:1 Langmuir fit. As for the experimental part: (§1) For the HSA binding kinetic analysis, HSA (Sigma #A37812) was immobilized on a CM5 chip surface using amine coupling in 10 mM sodium acetate (pH 5.0) (Cytvia). […] The chip surface was regenerated with 3 mM NaOH for 20 seconds at a flow rate of 20 μl/min. The kinetic data was blank subtracted and fit to a 1:1 Langmuir binding model (BIAcore evaluation software; Cytiva).
A general note: Surface plasmon resonance follows binding to a sensor surface in real time, without labels.

The target in test [3] is T1, human serum albumin (HSA). The test is described as follows: SPR (Biacore 8K): HSA amine-coupled on a CM5 chip, AFFIMER as analyte, pH 7.4, 1:1 Langmuir fit. On the procedure: as §1
Test [4] concerns the target T2, PD-L1 on cells (NCI-H441 cells; aAPC PD-L1/CHO-K1 cells, Promega) (human, UniProt Q9NZQ7 19-290).
T2 construct: whole, on cells; also called human PD-L1-expressing CHO-K1 cells; H441 cells endogenously expressing PD-L1
The test can be described thus: flow cytometry on PD-L1 expressing cells. On the technique in general: In flow cytometry, cells or beads pass a laser one at a time.

For test [5], the target named is T1, human serum albumin (HSA). The test is described as follows: SPR (Biacore) kinetics: HSA immobilised on a CM5 chip, AFFIMER as analyte, pH 7.4.
Test [6] concerns the target T1, human serum albumin (HSA). The test is described as follows: HSA binding ELISA: HSA coated, anti-cystatin A detection.
The target of test [7] is T3, human PD-L1-Fc (R&D Systems) (human, UniProt Q9NZQ7 19-239).
T3 construct: Bought reagent; also called huPD-L1-Fc; huPD-L1; not shown: Fc part of the bought fusion
T3 sequence (Q9NZQ7 19-239 limits assumed): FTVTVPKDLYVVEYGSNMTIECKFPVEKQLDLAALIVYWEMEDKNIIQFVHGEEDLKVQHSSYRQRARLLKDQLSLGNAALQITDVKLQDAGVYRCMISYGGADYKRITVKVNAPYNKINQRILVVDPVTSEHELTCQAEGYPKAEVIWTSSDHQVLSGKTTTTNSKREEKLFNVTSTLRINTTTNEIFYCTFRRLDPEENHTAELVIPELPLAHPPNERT
The test is described as follows: SPR (Biacore) kinetics: human PD-L1-Fc immobilised on a CM5 chip, AFFIMER as analyte.

T1 sequence (P02768 25-609): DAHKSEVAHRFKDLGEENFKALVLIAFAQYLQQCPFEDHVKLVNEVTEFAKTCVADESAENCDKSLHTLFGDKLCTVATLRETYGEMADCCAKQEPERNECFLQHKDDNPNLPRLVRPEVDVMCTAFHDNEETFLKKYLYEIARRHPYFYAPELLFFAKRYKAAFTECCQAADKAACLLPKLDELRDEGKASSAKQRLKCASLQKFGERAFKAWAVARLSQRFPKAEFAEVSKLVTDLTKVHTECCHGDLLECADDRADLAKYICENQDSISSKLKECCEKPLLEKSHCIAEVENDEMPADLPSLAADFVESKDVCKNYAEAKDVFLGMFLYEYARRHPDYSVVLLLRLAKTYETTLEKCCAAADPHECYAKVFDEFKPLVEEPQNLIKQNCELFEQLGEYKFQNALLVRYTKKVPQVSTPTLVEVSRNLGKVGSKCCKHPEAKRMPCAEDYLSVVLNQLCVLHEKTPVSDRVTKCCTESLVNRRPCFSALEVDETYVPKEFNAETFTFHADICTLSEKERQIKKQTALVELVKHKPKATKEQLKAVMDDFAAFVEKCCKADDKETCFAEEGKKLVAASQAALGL
T2 sequence (Q9NZQ7 19-290): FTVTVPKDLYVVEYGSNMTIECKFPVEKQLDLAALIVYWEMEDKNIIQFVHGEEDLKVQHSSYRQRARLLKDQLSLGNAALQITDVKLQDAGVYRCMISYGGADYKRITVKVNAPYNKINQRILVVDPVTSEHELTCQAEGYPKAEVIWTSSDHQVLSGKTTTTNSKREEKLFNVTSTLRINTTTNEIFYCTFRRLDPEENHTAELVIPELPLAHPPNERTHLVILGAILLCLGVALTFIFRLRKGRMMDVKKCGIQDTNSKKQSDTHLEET

B1: DC XT45 (dimer in-line fusion XT control) (designed binder)
chain: MIPGGLSEAKPATPEIQEIVDKVKPQLEEKTGETYGKLEAVQYKTQVVGGGGGGGGGGTNYYIKVRAGDNKYMHLKVFKSLGGGGGGGGGEDLVLTGYQVDKNKDDELTGFAEAAAKEAAAKEAAAKEAAAKEAAAKEAAAKMIPRGLSEAKPATPEIQEIVDKVKPQLEEKTNETYGKLEAVQYKTQVLANFFQRRWPGSTNYYIKVRAGDNKYMHLKVFNGPWKFRNTDRGADRVLTGYQVDKNKDDELTGF
For orientation: EC50 means the concentration that produces a half-maximal response. Higher therefore signals a less potent agent. Usually Kd stands for a measure of binding affinity in units of concentration. A high value points to lower affinity. One may read the koff as the first-order rate constant of dissociation. A lower koff goes with slow dissociation. For orientation: kon means the rate constant with which the complex forms. Read a high kon as faster complex formation. In turn, B1 yielded a 50% effective concentration (EC50) in test [1] of 20 pM. In test [2], this molecule registered a Kd of 7360 pM, a koff of 0.00276 s⁻¹ and a kon of 375000 M⁻¹ s⁻¹. In test [3], this molecule displayed a Kd of 1080 pM, a koff of 0.00272 s⁻¹ and a kon of 2.52e+06 M⁻¹ s⁻¹. The binding result in test [4] is “no binding”.

B2: HSA-41 (anti-serum albumin AFFIMER® polypeptide, monomer) (designed binder)
chain: MIPRGLSEAKPATPEIQEIVDKVKPQLEEKTNETYGKLEAVQYKTQVLANFFQRRWPGSTNYYIKVRAGDNKYMHLKVFNGPWKFRNTDRGADRVLTGYQVDKNKDDELTGF
notes: No tags are stated; also called HSA-41 monomer; XT polypeptide
On to B2, for which, in test [5], binding was characterised by a dissociation constant (Kd) of 1070 pM, the koff stood at 0.00436 s⁻¹ and the kon came to 4.06e+06 M⁻¹ s⁻¹. For the same molecule, in test [6], the EC50 was found to be 850 pM.

B3: Clone 80 XT41 (designed binder)
chain: MIPGGLSEAKPATPEIQEIVDKVKPQLEEKTGETYGKLEAVQYKTQVVRRKHFPQWPGTNYYIKVRAGDNKYMHLKVFKSLDLQPREVFQEDLVLTGYQVDKNKDDELTGFGGGGSGGGGSGGGGSGGGGSGGGGSGGGGSMIPRGLSEAKPATPEIQEIVDKVKPQLEEKTNETYGKLEAVQYKTQVLANFFQRRWPGSTNYYIKVRAGDNKYMHLKVFNGPWKFRNTDRGADRVLTGYQVDKNKDDELTGFGGGGSGGGGSGGGGSGGGGSGGGGSGGGGSMIPRGLSEAKPATPEIQEIVDKVKPQLEEKTNETYGKLEAVQYKTQVLANFFQRRWPGSTNYYIKVRAGDNKYMHLKVFNGPWKFRNTDRGADRVLTGYQVDKNKDDELTGF
notes: One Clone 80 and two HSA-41 units joined by flexible (G4S)6 linkers; Made in E. coli; No tag is stated for this construct
In test [7], B3 had a Kd of 172 pM, a koff of 0.000212 s⁻¹ and an on-rate constant (kon) of 1.24e+06 M⁻¹ s⁻¹. In test [5], this molecule came in with a Kd of 180 pM, an off-rate constant (koff) of 0.00189 s⁻¹ and a kon of 1.05e+07 M⁻¹ s⁻¹.

B4: Clone 80 XT40 (designed binder)
chain: MIPGGLSEAKPATPEIQEIVDKVKPQLEEKTGETYGKLEAVQYKTQVVRRKHFPQWPGTNYYIKVRAGDNKYMHLKVFKSLDLQPREVFQEDLVLTGYQVDKNKDDELTGFAEAAAKEAAAKEAAAKEAAAKEAAAKEAAAKMIPRGLSEAKPATPEIQEIVDKVKPQLEEKTNETYGKLEAVQYKTQVLANFFQRRWPGSTNYYIKVRAGDNKYMHLKVFNGPWKFRNTDRGADRVLTGYQVDKNKDDELTGFFAEAAAKEAAAKEAAAKEAAAKEAAAKEAAAKMIPGGLSEAKPATPEIQEIVDKVKPQLEEKTGETYGKLEAVQYKTQVVRRKHFPQWPGTNYYIKVRAGDNKYMHLKVFKSLDLQPREVFQEDLVLTGYQVDKNKDDELTGF
notes: HSA-41 sits in the middle position between two Clone 80 units, joined by rigid A(EAAAK)6 linkers; Made in E. coli; No tag is stated for this construct
For the molecule B4, in test [7], binding was characterised by a dissociation constant (Kd) of 66.8 pM, the koff amounted to 9.33e-05 s⁻¹ and the on-rate constant (kon) turned out to be 1.4e+06 M⁻¹ s⁻¹. Also, in test [5], the Kd worked out at 1540 pM, the koff is 0.00273 s⁻¹ and the kon was 1.77e+06 M⁻¹ s⁻¹.

B5: DC XT46 (trimer in-line fusion XT control) (designed binder)
chain: MIPGGLSEAKPATPEIQEIVDKVKPQLEEKTGETYGKLEAVQYKTQVVGGGGGGGGGGTNYYIKVRAGDNKYMHLKVFKSLGGGGGGGGGEDLVLTGYQVDKNKDDELTGFAEAAAKEAAAKEAAAKEAAAKEAAAKEAAAKMIPGGLSEAKPATPEIQEIVDKVKPQLEEKTGETYGKLEAVQYKTQVVGGGGGGGGGGTNYYIKVRAGDNKYMHLKVFKSLGGGGGGGGGEDLVLTGYQVDKNKDDELTGFAEAAAKEAAAKEAAAKEAAAKEAAAKEAAAKMIPRGLSEAKPATPEIQEIVDKVKPQLEEKTNETYGKLEAVQYKTQVLANFFQRRWPGSTNYYIKVRAGDNKYMHLKVFNGPWKFRNTDRGADRVLTGYQVDKNKDDELTGF
Regarding B5, in test [1], the EC50 turned out to be 40 pM. In test [2], the Kd turned out to be 1280 pM, the koff was determined as 0.00205 s⁻¹ and the kon was 1.61e+06 M⁻¹ s⁻¹. In addition, in test [3], binding was characterised by a dissociation constant (Kd) of 1450 pM, the koff stood at 0.00259 s⁻¹ and the kon was 1.79e+06 M⁻¹ s⁻¹. Further, the binding result in test [4] is reported as “no binding”.

For the origin of these results see US20240409638A1 (AVACTA LIFE SCIENCES, published 2024).
